The target of test [1] is human G protein-coupled receptor class C group 5 member D (GPRC5D) protein (human) (UniProt Q9NZD1). Briefly: flow cytometry (FACS) on CHO-GPRC5D cells. In general terms: In flow cytometry, cells or beads pass a laser one at a time.
Test [2] has the same target. Briefly: flow cytometry (FACS) on K562-GPRC5D cells.
The target is the same in test [3]. Nature of the test: flow cytometry (FACS) on MM1S myeloma cells.
The target of test [4] is T1, N-terminal peptide of human GPRC5D (1-27), biotin-labelled (human, labeled with biotin (EZ-Link Sulfo-NHS-LC-Biotin)).
T1 construct: Immobilised on an SA sensor at 20 nM; also called N-terminal peptide (Biotin) of GPRC5D
T1 peptide: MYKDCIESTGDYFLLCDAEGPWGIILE
Briefly: BLI (Octet RED384), biotinylated peptide on SA sensor, antibody in solution. An excerpt: (§1) The G5VHH1 and G5VHH2 antibody sequences were cloned into an eukaryotic vector containing p3.4-hIgG1Fc of a human IgG1 Fc fragment (hIgG1Fc) sequence, facilitating the recombinant expression of GPRC5D VHH-hIgG1Fc to give a recombinant protein which was then purified to determine the affinity of G5VHH1-hIgG1Fc and G5VHH2-hIgG1Fc to the affinity N-terminal peptide (Biotin) of GPRC5D. Briefly, the N-terminal peptide of human GPRC5D (>sp|Q9NZD1|1-27: […]) protein was labeled with biotin (EZ-Link Sulfo-NHS-LC-Biotin, Pierce, 21327). By the biolayer interferometry (BLI) technique, the binding kinetics between antigen and antibody was analyzed using the molecular interaction analyzer fortebiooctetRED384 (PALL) (wherein both antigen and antibody were diluted with a PBS buffer containing 0.1% BSA and 0.02% Tween 20). The biotin-conjugated antigen with a concentration of 20 nM was immobilized to an SA sensor, and bound for 3 min; then bound with double-diluted antibody solution (G5VHH1 and G5VHH2 antibodies) for 5 min; and finally dissociated for 5 min. The obtained results were analyzed by Octet Data Analysis 9.0 software (fortebio) to calculate the binding strength between the antigen and the antibody, thereby giving the KD value, Ka (1/Ms) value and Kd (1/s) value. […]
(In general: BLI is a label-free optical method that tracks binding on a fibre tip over time.)

Test [5] has as its target T2, human G protein-coupled receptor class C group 5 member D (GPRC5D) protein (human, UniProt Q9NZD1 1-345).
T2 construct: whole, on cells; The same protein on several cell lines; also called HuGPRC5D; CHO-GPRC5D
Nature of the test: flow cytometry on GPRC5D-CHO cells, anti-human IgG Fc secondary antibody. Here is the method: CHO-GPRC5D target cells were formulated with PBS buffer to a concentration of 1×10⁶ cells/mL, and added into a 96-well sharp-bottom plate (corning 3894) with 30 μL in each well. The antibodies to be detected, G5VHH1-hIgG1Fc and G5VHH2-hIgG1Fc were formulated with PBS buffer to a concentration of 30 μg/mL, and subject to 3-fold dilution to form a gradient of 8 concentrations (with the minimum concentration of 0). The formulated antibodies with different concentrations were mixed well with the plated target cells at 30 μL/well, and incubated in a refrigerator at 4° C. for 1 hr. 150 μL of buffer was added into each well, and centrifuged at 300 g for 5 min. The supernatant was then discarded, and the cells were additionally washed once. Goat-anti-human IgG (Fc-specific, ab98593) fluorescent secondary antibody was formulated with buffer at a ratio of 1:200, added into each well in an amount of 30 μl and mixed with the cells uniformly, and incubated in the refrigerator at 4° C. for 30 min. 170 μL of buffer was added to each well, and centrifuged at 300 g for 5 min. The supernatant was then discarded and the cells were additionally washed once. 35 μL of buffer was added into each well, mixed well, and the mixture was detected by iQue Screener Flow Cytometer (available from IntelliCyt Company). […]

The target in test [6] is T2, human G protein-coupled receptor class …. Briefly: flow cytometry (FACS) on CHO-GPRC5D cells.
Test [7] has the same target. Nature of the test: flow cytometry (FACS) on K562-GPRC5D cells.
For test [8] the target is unchanged. Briefly: flow cytometry (FACS) on MM1S myeloma cells. Here is the method:
The target cells (i.e., MM1S myeloma cells) were formulated with buffer to a concentration of 1×10⁶ cells/mL, and added into a 96-well sharp-bottom plate (corning 3894) with 30 μL in each well. The antibody to be detected was formulated with buffer to a concentration of 10 μg/mL, and subject to 3-fold dilution to form a gradient of 8 concentrations. The formulated antibodies of different concentrations were mixed well with the plated target cells at 30 μL/well, and incubated in a refrigerator at 4° C. for 1 hr. 150 μL of buffer was added into each well, and centrifuged at 300 g for 5 min. The supernatant was discarded, and then the cells were loosened up by shaking, and additionally washed once. The fluorescent secondary antibody (ab98593) was formulated with buffer at a ratio of 1:200, added into each well in an amount of 30 μl and mixed with the cells uniformly, and incubated in the refrigerator at 4° C. for 30 min. 150 μL of buffer was added to each well, and centrifuged at 300 g for 5 min. The supernatant was discarded, and then the cells were loosened up by shaking, and additionally washed once. 35 μL of buffer was added into each well, mixed well, and the mixture was measured by a flow cytometer. Of those, ET150-5scFv is a positive control antibody with the sequence found in the patent application CN107428829A, 3B5VHH has an amino acid sequence as set forth in SEQ ID NO: 15, 3E7VHH has an amino acid sequence as set forth in SEQ ID NO: 19, 4A2VHH has an amino acid sequence as set forth in SEQ ID NO: 24, and 4B3VHH has an amino acid sequence as set forth in SEQ ID NO: 30.

The target of test [9] is T1, N-terminal peptide of human GPRC5D …. Briefly: BLI (Octet RED384), biotinylated peptide on SA sensor; fit R2 0.7914, model called not credible.
Description: as §1

T2 sequence (Q9NZD1 whole entry): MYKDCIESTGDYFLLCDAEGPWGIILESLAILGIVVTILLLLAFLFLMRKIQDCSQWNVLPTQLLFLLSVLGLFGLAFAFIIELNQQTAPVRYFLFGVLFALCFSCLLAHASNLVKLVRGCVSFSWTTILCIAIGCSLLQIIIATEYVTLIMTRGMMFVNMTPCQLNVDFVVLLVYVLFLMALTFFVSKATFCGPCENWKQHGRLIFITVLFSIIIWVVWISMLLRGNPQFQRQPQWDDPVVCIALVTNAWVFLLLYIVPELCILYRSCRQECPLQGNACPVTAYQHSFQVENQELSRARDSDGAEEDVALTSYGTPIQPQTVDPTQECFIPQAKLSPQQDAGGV

B1: ET150-5 scFv (scFv, from another filing)
scFv: QSVLTQPPSASGTPGQRVTISCSGSRSNVGGNYVFWYQQVPGATPKLLIYRSNQRPSGVPDRFAGSKSGSSASLAISGLRSEDEADYYCATWDDSLSGFVFGTGTKVTVLGSRGGGGSGGGGSGGGGSLEMAEVQLVESGGGLVKPGGSLRLSCAASGFTFSDYYMSWIRQAPGKGLEWVSYISSSGSTIYYADSVKGRFTISRDNAKNSLYLQMNSLRAEDTAVYYCARGYGKAYDQWGQGTLVTVSS
What is called EC50 is the midpoint of the concentration-response curve. In the case of B1, the EC50 in [1] amounted to 0.249 mg/L; in test [2], 0.431 mg/L; in test [3] it was 0.911 mg/L.

B2: G5VHH2-hIgG1Fc (Fc fusion)
chain: EVQLVESGGGLVQPGGSLRLSCAASGLIFSRYVMGWFRQAPGKGRELVAFINSSGGSTNYPDSVEGRFTISRDNAKRMVYLQMNSLRAEDTAVYYCAASSRTSTTRGYNYWGQGTQVTVSS
notes: also called G5VHH2 antibody; not shown: human IgG1 Fc fragment (hIgG1Fc) of vector p3.4-hIgG1Fc
A word on the Kd: it is the concentration at which binding is half-saturated. A higher Kd goes with lower affinity. For orientation: EC50 (read off the curve) means the concentration giving half of the maximal effect. Read a low EC50 (read off the curve) as an effect from little substance. In [4], B2 showed a Kd of 0.0769 µM. Further, the “EC50 (read off the curve)” value in [5] was about 0.4 mg/L.

B3: 4B3 VHH (VHH)
VHH: EVQLVESGGGLVQPGGSLRLSCAASGLIFSRYVMGWFRQAPGKGRELVAFINSSGGSTNYPDSVEGRFTISRDNAKRMVYLQMNSLRAEDTAVYYCAASSRTSTTRGYNYWGQGTQVTVSS
notes: also called G5VHH2
Turning to B3, the EC50 was found to be 0.18 mg/L in test [6], 0.216 mg/L in test [7] and 0.658 mg/L in test [8].

B4: 3B5 VHH (VHH)
VHH: EVQLVESGGGLVQPGGSLRLSCAASGFIFSRYGMGWFRQAPGKGRELVAAINWSDGTTYYPDSVEGRFTISRDNAKRMVYLQMNSLRAEDTAVYYCAADRRLRSQTGYDYWGQGTQVTVSS
notes: From the synthetic nanobody library NanoOri_1.0 (Caplacizumab backbone)
On to B4, for which the EC50 in test [6] was 0.103 mg/L; in test [7], 0.207 mg/L; in test [8], 0.0439 mg/L.

B5: 4A2 VHH (VHH)
VHH: EVQLVESGGGLVQPGGSLRLSCAASGFIFSRYDMGWFRQAPGKGRELVAVITWGGGSTYYPDSVEGRFTISRDNAKRMVYLQMNSLRAEDTAVYYCAARSASAYRTGRLEYNYWGQGTQVTVSS
With B5, the EC50 was determined as 0.0687 mg/L in [6], 0.164 mg/L in [7] and 0.0195 mg/L in test [8].

B6: G5VHH1-hIgG1Fc (Fc fusion)
chain: EVQLVESGGGLVQPGGSLRLSCAASGRIFSRDAMGWFRQAPGKGRELVAAINSSGGNTYYPDSVEGRFTISRDNAKRMVYLQMNSLRAEDTAVYYCAARGVRWTSTTAYGYNYWGQGTQVTVSS
notes: also called G5VHH1 antibody; not shown: human IgG1 Fc fragment (hIgG1Fc) of vector p3.4-hIgG1Fc
Regarding B6, the “EC50 (read off the curve)” value in [5] is about 1 mg/L. Further, in test [9], the binding result was “no binding”.

B7: 3E7 VHH (VHH)
VHH: EVQLVESGGGLVQPGGSLRLSCAASGRIFSRDAMGWFRQAPGKGRELVAAINSSGGNTYYPDSVEGRFTISRDNAKRMVYLQMNSLRAEDTAVYYCAARGVRWTSTTAYGYNYWGQGTQVTVSS
notes: also called G5VHH1
Consider B7, for which the values for the EC50 in [6], in test [7] and in [8] were 0.426 mg/L, 0.576 mg/L and 0.286 mg/L, respectively.

Values taken from US20250057950A1 (ORICELL THERAPEUTICS, published 2025).
